# Results: patent US20220363763A1 (ABL BIO, published 2022)
# Where two headings read alike, the source gives them in different places.
# Assays:
# [1] = target: T1, human PD-L1 (construct not stated) (human, UniProt Q9NZQ7 19-239, limits assumed); assay: BLI Octet Red 96, affinity ranking
# T1 construct: also called B7-H1 (PD-L1); PD-L1 protein
# Description: To explore the binding kinetics of the humanized antibody, this example performed the affinity ranking by using Octet Red 96.
# [2] = target: T2, human PD-L1 expressed on mammalian cells (human, UniProt Q9NZQ7 19-290); assay: flow cytometry (MFI) on PDL1-CHOK1 cells; EC50 table has no unit, x axis Antibodies(nM)
# T2 construct: whole, on cells; also called PDL1-CHOK1 cells; PDL1-Raji cells
# T2 sequence (Q9NZQ7 19-290): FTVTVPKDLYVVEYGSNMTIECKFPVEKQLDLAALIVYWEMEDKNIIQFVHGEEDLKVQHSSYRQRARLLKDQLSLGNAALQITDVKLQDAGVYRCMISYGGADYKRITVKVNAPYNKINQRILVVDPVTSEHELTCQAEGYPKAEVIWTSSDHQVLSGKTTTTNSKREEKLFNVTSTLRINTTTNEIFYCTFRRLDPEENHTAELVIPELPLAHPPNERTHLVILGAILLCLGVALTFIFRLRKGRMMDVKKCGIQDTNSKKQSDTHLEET
# Protocol: (§1) To evaluate the antigen binding property, the humanized antibodies were analyzed for its binding to mammalian expressed PD-L1 by FACS. Briefly, PDL1-CHOK1 cells were firstly incubated with 5-fold serious diluted humanized antibodies starting at 2 μg/ml at RT for 1 hour. After wash by FACS buffer (PBS with 2% FBS), the alexa 488-anti-human IgG antibody was added to each well and incubated at RT for 1 hour. The MFI of Alexa 488 was evaluated by FACSAriaIII.
# human PD-L1-Fc protein [3] = target: T3, human PD-L1-Fc protein (human, UniProt Q9NZQ7 19-239); assay: ELISA on coated human PD-L1-Fc; EC50 table has no unit, x axis Ab(nM)
# T3 construct: Coated on ELISA plates; also called huPD-L1; not shown: Fc part
# T3 sequence (Q9NZQ7 19-239 limits assumed): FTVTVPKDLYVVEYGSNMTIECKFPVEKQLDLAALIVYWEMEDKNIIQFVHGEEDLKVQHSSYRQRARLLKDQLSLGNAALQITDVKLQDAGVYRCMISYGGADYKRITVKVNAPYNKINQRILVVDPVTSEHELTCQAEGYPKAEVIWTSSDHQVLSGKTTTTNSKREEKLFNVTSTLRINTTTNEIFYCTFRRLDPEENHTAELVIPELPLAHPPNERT
# Protocol: (§2) To evaluate the antigen binding activity, the humanized antibodies were subjected to ELISA test. Briefly, microtiter plates were coated with human PD-L1-Fc protein at 0.1 μg/ml in PBS, 100 μl/well at 4° C. overnight, then blocked with 100 μl/well of 5% BSA. Five-fold dilutions of humanized antibodies starting from 10 μg/ml were added to each well and incubated for 1-2 hours at RT. The plates were washed with PBS/Tween and then incubate with […] antibody conjugated with Horse Radish Peroxidase (HRP) for 1 hour at RT. After washing, the plates were developed with TMB substrate and analyzed by spectrophotometer at OD 450-630 nm.
# [4] = target: T2, human PD-L1 expressed on mammalian cells; assay: flow cytometry (MFI) on PDL1-CHOK1 cells; EC50 table has no unit, x axis Antibodies(nM); remark: listed apart in the source
# Protocol: as §1
# [5] = target: T4, human PD-L1-his taq protein (human, UniProt Q9NZQ7 19-239, limits assumed); assay: SPR Biacore T200, antibody captured, PD-L1-his injected
# T4 construct: also called recombinant PD-L1 protein; recombinant human PD-L1; not shown: his tag
# T4 sequence (Q9NZQ7 19-239 limits assumed): as above
# Protocol: The binding of the humanized antibodies to recombinant PD-L1 protein (human PD-L1-his taq) was tested by BIACORE™ using a capture method. The HL1210-3 mouse mAb were captured using anti-mouse Fc antibody coated on a CM5 chip. A series dilution of human PD-L1-his taq protein was injected over captured antibody for 3 mins at a flow rate of […]. The antigen was allowed to dissociate for 900 s. All the experiments were carried out on a Biacore T200.
# human PD-L1-Fc protein [6] = target: T3, human PD-L1-Fc protein; assay: ELISA on coated human PD-L1-Fc; EC50 table has no unit, x axis Ab(nM); remark: listed apart in the source
# Protocol: as §2
# [7] = target: T2, human PD-L1 expressed on mammalian cells; assay: FACS receptor blocking on PDL1-CHOK1 cells, competitor Bio-PD1 (30 µg/ml)
# Protocol: To evaluate the blocking effect of humanized antibodies on human PD-L1 expressed on mammalian cells to bind to its receptor PD-1, the FACS-based receptor blocking assay was employed. Briefly, PDL1-CHOK1 cells were firstly incubated with 3-fold serious diluted HL1210-3 mouse mAb starting at 20 μg/ml at RT for 1 hour. After wash by FACS buffer (PBS with 2% FBS), the biotin-labeled huPD-1 were added to each well and incubated at RT for 1 hour. Then, the Streptavidin-PE was added to each well for 0.5 hour post twice wash with FACS buffer. The mean florescence intensity (MFI) of PE was evaluated by FACSAriaIII.
# [8] = target: T2, human PD-L1 expressed on mammalian cells; assay: flow cytometry (MFI) on PDL1-CHOK1 cells; EC50 table has no unit, x axis Antibodies(nM); remark: listed apart in the source
# Protocol: as §1
# human PD-L1-Fc protein [9] = target: T3, human PD-L1-Fc protein; assay: ELISA on coated human PD-L1-Fc; EC50 table has no unit, x axis Ab(nM); remark: listed apart in the source
# Protocol: as §2
# T1 sequence (Q9NZQ7 19-239 limits assumed): as above
Kd [1],koff [1],kon [1],EC50 [2],EC50 (human PD-L1-Fc protein [3]),EC50 [4],Kd [5],koff [5],kon [5],EC50 (human PD-L1-Fc protein [6]),TOP [7],EC50 [8],EC50 (human PD-L1-Fc protein [9]),Binder
4.25 nM,0.000302 s⁻¹,71000 M⁻¹ s⁻¹,2.31 nM,0.167 nM,,,,,,,,,"Hu1210-1 (antibody, V domains shown, Hu1210 VH.1 x Vk.1) VH: EVQLVESGGGLVKPGGSLRLSCAASGFTFSSYDMSWVRQAPGKGLEWVSTISDGGGYIYYSDSVKGRFTISRDNAKNSLYLQMNSLRAEDTAVYYCAREFGKRYALDYWGQGTTVTVSS VL: DIQMTQSPSSLSASVGDRVTITCKASQDVTPAVAWYQQKPGKAPKLLIYSTSSRYTGVPSRFSGSGSGTDFTFTISSLQPEDIATYYCQQHYTTPLTFGQGTKLEIK"
2.2 nM,0.00018 s⁻¹,81700 M⁻¹ s⁻¹,,,1.23 nM,0.193 nM,2.13e-05 s⁻¹,110000 M⁻¹ s⁻¹,0.208 nM,80.9,,,"Hu1210-17 (antibody, V domains shown, Hu1210 VH.4b x Vk.1; human gamma 1 / kappa constant domains) VH: EVQLVESGGGLVQPGGSLRLSCAASGFTFSSYDMSWVRQAPGKSLEWVATISDGGGYIYYSDSVKGRFTISRDNAKNSLYLQMNSLRDEDTAVYICAREFGKRYALDYWGQGTTVTVSS VL: DIQMTQSPSSLSASVGDRVTITCKASQDVTPAVAWYQQKPGKAPKLLIYSTSSRYTGVPSRFSGSGSGTDFTFTISSLQPEDIATYYCQQHYTTPLTFGQGTKLEIK"
4.83 nM,0.000383 s⁻¹,79300 M⁻¹ s⁻¹,1.43 nM,0.193 nM,,,,,,,,,"Hu1210-5 (antibody, V domains shown, Hu1210 VH.2a x Vk.1; human gamma 1 / kappa constant domains) VH: EVQLVESGGGLVKPGGSLRLSCAASGFTFSSYDMSWIRQAPGKGLEWVATISDGGGYIYYSDSVKGRFTISRDNAKNSLYLQMNSLRAEDTAVYYCAREFGKRYALDYWGQGTTVTVSS VL: DIQMTQSPSSLSASVGDRVTITCKASQDVTPAVAWYQQKPGKAPKLLIYSTSSRYTGVPSRFSGSGSGTDFTFTISSLQPEDIATYYCQQHYTTPLTFGQGTKLEIK"
4.36 nM,0.000366 s⁻¹,83800 M⁻¹ s⁻¹,,,,,,,,,1.57 nM,0.187 nM,"Hu1210-13 (antibody, V domains shown, Hu1210 VH.3 x Vk.1; human gamma 1 / kappa constant domains) VH: EVQLLESGGGLVQPGGSLRLSCAASGFTFSSYDMSWVRQAPGKGLEWVSTISDGGGYIYYSDSVKGRFTISRDNSKNTLYLQMNSLRAEDTAVYYCAREFGKRYALDYWGQGTTVTVSS VL: DIQMTQSPSSLSASVGDRVTITCKASQDVTPAVAWYQQKPGKAPKLLIYSTSSRYTGVPSRFSGSGSGTDFTFTISSLQPEDIATYYCQQHYTTPLTFGQGTKLEIK"
4.5 nM,0.000357 s⁻¹,79200 M⁻¹ s⁻¹,,,1.8 nM,,,,0.195 nM,,,,"Hu1210-18 (antibody, V domains shown, Hu1210 VH.3 x Vk.1a; human gamma 1 / kappa constant domains) VH: EVQLLESGGGLVQPGGSLRLSCAASGFTFSSYDMSWVRQAPGKGLEWVSTISDGGGYIYYSDSVKGRFTISRDNSKNTLYLQMNSLRAEDTAVYYCAREFGKRYALDYWGQGTTVTVSS VL: DIQMTQSPSSLSASVGDRVTITCKASQDVTPAVAWYQQKPGKSPKLLIYSTSSRYTGVPSRFSGSGSGTDFTFTISSLQPEDIATYYCQQHYTTPLTFGQGTKLEIK"
2.64 nM,0.000228 s⁻¹,86200 M⁻¹ s⁻¹,1.37 nM,0.186 nM,,,,,,84.3,,,"Hu1210-3 (antibody, V domains shown, Hu1210 VH.1b x Vk.1; human gamma 1 / kappa constant domains) VH: EVQLVESGGGLVKPGGSLRLSCAASGFTFSSYDMSWVRQAPGKSLEWVATISDGGGYIYYSDSVKGRFTISRDNAKNSLYLQMNSLRAEDTAVYICAREFGKRYALDYWGQGTTVTVSS VL: DIQMTQSPSSLSASVGDRVTITCKASQDVTPAVAWYQQKPGKAPKLLIYSTSSRYTGVPSRFSGSGSGTDFTFTISSLQPEDIATYYCQQHYTTPLTFGQGTKLEIK"
4.45 nM,0.00035 s⁻¹,78700 M⁻¹ s⁻¹,,,,,,,,,2.04 nM,0.187 nM,"Hu1210-15 (antibody, V domains shown, Hu1210 VH.4 x Vk.1; human gamma 1 / kappa constant domains) VH: EVQLVESGGGLVQPGGSLRLSCAASGFTFSSYDMSWVRQAPGKGLEWVSTISDGGGYIYYSDSVKGRFTISRDNAKNSLYLQMNSLRDEDTAVYYCAREFGKRYALDYWGQGTTVTVSS VL: DIQMTQSPSSLSASVGDRVTITCKASQDVTPAVAWYQQKPGKAPKLLIYSTSSRYTGVPSRFSGSGSGTDFTFTISSLQPEDIATYYCQQHYTTPLTFGQGTKLEIK"
3.23 nM,0.000251 s⁻¹,77800 M⁻¹ s⁻¹,1.44 nM,0.168 nM,,,,,,,,,"Hu1210-2 (antibody, V domains shown, Hu1210 VH.1a x Vk.1; human gamma 1 / kappa constant domains) VH: EVQLVESGGGLVKPGGSLRLSCAASGFTFSSYDMSWVRQAPGKGLEWVATISDGGGYIYYSDSVKGRFTISRDNAKNSLYLQMNSLRAEDTAVYYCAREFGKRYALDYWGQGTTVTVSS VL: DIQMTQSPSSLSASVGDRVTITCKASQDVTPAVAWYQQKPGKAPKLLIYSTSSRYTGVPSRFSGSGSGTDFTFTISSLQPEDIATYYCQQHYTTPLTFGQGTKLEIK"
7.68 nM,0.000546 s⁻¹,71200 M⁻¹ s⁻¹,2.12 nM,0.184 nM,,,,,,,,,"Hu1210-4 (antibody, V domains shown, Hu1210 VH.2 x Vk.1; human gamma 1 / kappa constant domains) VH: EVQLVESGGGLVKPGGSLRLSCAASGFTFSSYDMSWIRQAPGKGLEWVSTISDGGGYIYYSDSVKGRFTISRDNAKNSLYLQMNSLRAEDTAVYYCAREFGKRYALDYWGQGTTVTVSS VL: DIQMTQSPSSLSASVGDRVTITCKASQDVTPAVAWYQQKPGKAPKLLIYSTSSRYTGVPSRFSGSGSGTDFTFTISSLQPEDIATYYCQQHYTTPLTFGQGTKLEIK"
4.51 nM,0.0004 s⁻¹,88700 M⁻¹ s⁻¹,,,1.73 nM,,,,0.185 nM,,,,"Hu1210-20 (antibody, V domains shown, Hu1210 VH.4 x Vk.1a; human gamma 1 / kappa constant domains) VH: EVQLVESGGGLVQPGGSLRLSCAASGFTFSSYDMSWVRQAPGKGLEWVSTISDGGGYIYYSDSVKGRFTISRDNAKNSLYLQMNSLRDEDTAVYYCAREFGKRYALDYWGQGTTVTVSS VL: DIQMTQSPSSLSASVGDRVTITCKASQDVTPAVAWYQQKPGKSPKLLIYSTSSRYTGVPSRFSGSGSGTDFTFTISSLQPEDIATYYCQQHYTTPLTFGQGTKLEIK"
3.12 nM,0.000293 s⁻¹,93900 M⁻¹ s⁻¹,,,1.29 nM,,,,0.192 nM,,,,"Hu1210-21 (antibody, V domains shown, Hu1210 VH.4a x Vk.1a; human gamma 1 / kappa constant domains) VH: EVQLVESGGGLVQPGGSLRLSCAASGFTFSSYDMSWVRQAPGKGLEWVATISDGGGYIYYSDSVKGRFTISRDNAKNSLYLQMNSLRDEDTAVYYCAREFGKRYALDYWGQGTTVTVSS VL: DIQMTQSPSSLSASVGDRVTITCKASQDVTPAVAWYQQKPGKSPKLLIYSTSSRYTGVPSRFSGSGSGTDFTFTISSLQPEDIATYYCQQHYTTPLTFGQGTKLEIK"
2.5 nM,0.000225 s⁻¹,90300 M⁻¹ s⁻¹,,,1.01 nM,,,,0.137 nM,87.5,,,"Hu1210-19 (antibody, V domains shown, Hu1210 VH.3a x Vk.1a; human gamma 1 / kappa constant domains) VH: EVQLLESGGGLVQPGGSLRLSCAASGFTFSSYDMSWVRQAPGKSLEWVATISDGGGYIYYSDSVKGRFTISRDNSKNTLYLQMNSLRAEDTAVYICAREFGKRYALDYWGQGTTVTVSS VL: DIQMTQSPSSLSASVGDRVTITCKASQDVTPAVAWYQQKPGKSPKLLIYSTSSRYTGVPSRFSGSGSGTDFTFTISSLQPEDIATYYCQQHYTTPLTFGQGTKLEIK"
